The values below come from the nanobody polyreactivity screen of Harvey et al. (2022).

A short description of this series: yeast display, Sf9 membrane polyspecificity reagent, FACS + sequencing; frameworks hold sequencing errors. Put shortly:
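Synthetic nanobody libraries on Saccharomyces cerevisiae BJ5465 were galactose-induced for 36–48 hours, stained 1 hour at 4 °C with 10% biotinylated, detergent-solubilized Sf9 membrane reagent and enriched on streptavidin microbeads. FACS then separated cells into low and high (top ~1%) gates by anti-HA (expression) and streptavidin (reagent binding) fluorescence. Genes were colony-PCR amplified, MiSeq 2 × 250 sequenced and CDR-length filtered. A clone's polyreactivity label is that of its gate of origin.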
For the sequence “QVQLVVSGGGLVQAGGSLRLSCAASGRTFYANAMGWYRQAPGKERELVAAISTGGDGTYYADSVKGRFTISRDNAKNTVYLQMNSLKPEDTADYYCAVRHRASGILYDYWGQGTQVTVSS”, the “polyreactivity (PSR sort gate)” value is listed as “low polyreactivity”.
For the sequence “QVQLVVSGGGLVQAGGSLRLSCAASGSIFYFNAMGWYRQAPGKERELVASITSGGSTNYADSVKGRFTISRDNAKTTVYLQLISLKPEDTAVYYFNAYTWGVGSSLDDVGYWGQGTQVTGSS”, the “polyreactivity (PSR sort gate)” value was “low polyreactivity”.
The same measure for “QVQLVVSGGGLVQAGGSLRLSCAASGSMLYKYAMGWYRQPPGKEREFVAAISSSGGITYYADSVKGRFTISRDNAKNTVYLQMNSLKPEDTAVYYCAARTRSQFGHGYWGQGTQVTVSS”: “high polyreactivity”.
The value for “QVQLVVSGGGLVQAGGSLRLSCAASGSTFQYNAMGWYRQAPGKERELVAAISTGTSTYYADSVKGRFTISRDNAKNTVYLQLNSLKTEVTAVYYCAAEYWGDYTEYNYWGHGTQVTVSS” was “high polyreactivity”.
On to “QVQLVVSGGGLVQAGGSLSLSWAASGRIFSSYAMGWYRQAPGKERELDAAIDRTDSTYYADSVKGRFTISRDNAKNTVYLQMNSLIPEDTAVYYCAVLTYRYQSWGNYYLEYDYWGQGTEVTVSS”, for which the “polyreactivity (PSR sort gate)” value is “low polyreactivity”.
As to “QVQLVVSGGGLVQPGGSLRLSCAASGRTFPYYAMGWYIQAPGKERELVARITGSGTSTNYADSVKGRFTISRDKSKNTVYLKMNSLKPEDTAVYYCAAPKYGSYYIADYEYWGQGTHVTVSS”, the “polyreactivity (PSR sort gate)” value is given as “low polyreactivity”.
The same measure for “QVQLVYSGGGLVQAGGSLRLSCAASGSLFYHNAMGWYRQAAGKEMELDADISWSGGSTYYADSVKGRFTISRDYAKNTVYLQMNSLKPEDTAVYYGNTDARYDEYDEFDYWGQGTQVTVSS”: “low polyreactivity”.
For the sequence “QVQLVYTLGGLDQAGGSLRVSCYASGRTFVYYPMGWYRQAPGKERELVAAITRSGGRTYYADSVKGRFTISRDNAKNTVYLQKYSMKPEETAVYYCAARYCDNPYWFDYWGQGTQVTVSS”, the “polyreactivity (PSR sort gate)” value is reported as “high polyreactivity”.
As to “QVQMQERAAWCRRAGSLRLSCAASGNITDYYFMSWYRQAPGKERELVAAIAPGSNTYYADSVKGRFTISRDNAKNTVYLQMNSLKPEDTAVCFCAANSTQYTWFDYWGQGTQVPVSS”, the “polyreactivity (PSR sort gate)” value is “low polyreactivity”.
With “QVQPVESGGGLVQAGGSLRLSCAASGLTFYRYAMGWYRQAPGKERELVAAISSGSSTYYADSVKGRFTISRDNSKNTVYLQLNILKPEDTAVYYCAARSIDAHGSRYGYWGQGTQVTVSS”, the “polyreactivity (PSR sort gate)” value is listed as “high polyreactivity”.
Regarding “QVQQQESGGGLVQAGGSLRLSCAASGTIFQLTVMGRYRQAPGKERELVASIDYGGNTNYADSVKGRFTISRDNAKNTVYLQMNSLKPEDTAVYYCAASSDSWTTHPYWGQGTQGTVSS”, the “polyreactivity (PSR sort gate)” value is listed as “low polyreactivity”.
For “QVQQQESGGGRCSGRRTTPGLRGERHYFSLLHGLVSPGAGQEREFVAAIAVRSTYYADSAKGRFTINRDNAKYTVYLQMNSLKPEDTSVYSCAAYYSYYGGDYWGQGTQVTVSS”, the “polyreactivity (PSR sort gate)” value is given as “low polyreactivity”.
Turning to “QVQREESGGGLVQAGGSLRLSCAASGSTFDGNSMGWYTQAPGKERELVAAIRKSGGRTYYADSVKGRFTISRDNAKNTVYLQMNSLKPDDTAVYYCAAYERGFTYRRYYWGQGTQVTVSS”, the “polyreactivity (PSR sort gate)” value was “high polyreactivity”.
As for “QVQRLESGGGLVQAGGSLRLSCAASGGTIDWNAMGWYRQAPGKETEFVAAITSSGGSTYYADSVKGRFTISRDNAKNSVYLQMTSLKPEDTAVYECAADFWYYQYPYGGGGYWGQGTQVTVSS”, the “polyreactivity (PSR sort gate)” value is given as “low polyreactivity”.
The value for “QVQRVDSGGGLVQAGGSLRLSCDPSGRTHDVNAMGWYRQAPWKERQLVAAISYSGGITYYADSVKGRFTISRDNAKNTVYLQMNSLKPEDTAVYYCAVVGGYPSYTVDYWGQGSQVTVSS” was “low polyreactivity”; that for “QVQRVECGGGLVLAGGSLRLSCAASGRILVFYAMGWYRQARGKVRELVATITDTGRTNYADSVKGRCTISRDNAKKTDSLQMTSQKPEDTAVYYCAKQRDYGFPWATYDYWGQGTQGTVSS” was “low polyreactivity”; that for “QVQRVESAGCLVQAGVSLRLSCPPSRRIFSRYAIGWYRQAPGKERELVAAISWSGGSTYYADSVKGRFTISRDNAMNTVYLQLIILKPEDTAVYYCAARRSYSYGSWGQGTQVTVSS” was “high polyreactivity”.
For “QVQRVESGGGIVQAGGSLRLTCAASGITFVSYTIGWSRQAPGKEREFVAAITWNVASTYYADSVKGRFTISRDNAKNTVYLQMNSLKPEDTAVYYCAAYSRFTSDYWGQGTQVTVSS”, the “polyreactivity (PSR sort gate)” value is recorded as “high polyreactivity”.
Consider “QVQRVESGGGLGQAGGILLLSCAASGFTFKWYSMGWYRQARGKERELVAGISRRGGTTNYADSFKGRFTISRHNAKNTVNLQINSLKPEDPPVYYCAAESQLTKYYYWGQGTQVTVSS”, for which the “polyreactivity (PSR sort gate)” value is on record as “high polyreactivity”.
Take “QVQRVESGGGLLQAGGSLSLSCAASGSIFEWYAMGWYRQEPGTERELVAAIRSGGTTNYADSVKGRFTISRDHAKNTVYLQMNSLKPEVTAVYDCAAKSVTGLFRYYYWGQGTQVTVTS”: the “polyreactivity (PSR sort gate)” value is given as “low polyreactivity”.
“QVQRVESGGGLVQAGGILSLSCAASGSIFPWYAMGWYIQAPANERELVAAITISGGSTHYADSVKGRFTISRDNAKNSVYLEMNSLIPEDTAVYYCSTPRYPSYEYWGLGTQVTVSS”: the “polyreactivity (PSR sort gate)” value is listed as “low polyreactivity”.
“QVQRVESGGGLVQAGGRLRLSCAASGFTFFHYAMGRYRQAPGKERELVAAISWSGGTTYYADSVKGRFTISRDNAKNTVYLQMNCLKPEDTAVYYFAADGGLGWRWLPLGYRYGFDYWGQGTQVTVSS”: the “polyreactivity (PSR sort gate)” value is on record as “low polyreactivity”.
In the case of “QVQRVESGGGLVQAGGRLRLSCAASGRTFDNYAMGWYIQAPGKERELVSAISGGGGTNYADSVKGRFTISPDNAKNTVYLQMNSLKPEDTAVYYCAADTNGYEFDYWGQGTQVTVSS”, the “polyreactivity (PSR sort gate)” value is reported as “low polyreactivity”.
As to “QVQRVESGGGLVQAGGRLRLSCAASGSISVAKAMGWYRQAPGKERELVAAITDSGDDTYYADSVKGRFTISRDNAKNTVYLQMNSLKPEDTAVYYCAAGLRLDLGAMYYWGQGTQVTVSS”, the “polyreactivity (PSR sort gate)” value is on record as “low polyreactivity”.
In the case of “QVQRVESGGGLVQAGGSLRISCAASGSTFITYAMGWYRQERGKERELVAASRWSGGGTYYADSVKGRFTISRDNAKNTVYVQMNSLKPEDTAVYYCAADHFNYTTGRDYWGQGTQVTVSS”, the “polyreactivity (PSR sort gate)” value was “low polyreactivity”.
With “QVQRVESGGGLVQAGGSLRLRCAASGRTFGYYAMGWYRHAPGKERVLVAAINSRGGSTYYADPVKGRFTISRDNAKNTVYLQMNSLKPEDTAVYYCAKRWCSYGSYSLYDYWGQGTQVTVSS”, the “polyreactivity (PSR sort gate)” value is on record as “high polyreactivity”.
Consider “QVQRVESGGGLVQAGGSLRLSCAASGFIFDGYAMGWYRQAPGKERELVAAIDSGGDRTYYADSVKGRFTISRDNAKNTVYLLMNSLKPEDTAVYYCAADSSDPTGYEYGGQGTQVTVSS”, for which the “polyreactivity (PSR sort gate)” value was “low polyreactivity”.
“QVQRVESGGGLVQAGGSLRLSCAASGFIFTSNARGWYRPAPGKERELVAASTKSGGSTYYADSVKGRFTISRDNAKNTVYLQMNSLKPEDTAVYYCAAYPTSRYKYEYWGQGTQVTVSS”: the “polyreactivity (PSR sort gate)” value is recorded as “high polyreactivity”.
In the case of “QVQRVESGGGLVQAGGSLRLSCAASGFIITRYSMGWYRQAPGKEREMVAVINSSGGSTYYADSVKGRFTISRDTAKNTVYVQMNSLKPEDTAVYYCNALSRYRIWSYGYWGQGTQVTVSS”, the “polyreactivity (PSR sort gate)” value is “high polyreactivity”.
The value for “QVQRVESGGGLVQAGGSLRLSCAASGGTFPQYAMGWDRQSHGKETEFVADITSRGGTTYYADSVKGRFTISRDNAKNTVYLQMNSLKPEDTAVNYCAADNPADWWGLDYWGQGTQVTVSS” was “low polyreactivity”.
